Laboratory results published in the supplement of paper PMC10724198.

test system: Saccharomyces cerevisiae; assay: protein stability index of tFT-peptide fusion in deletion strain of DAS1 (PSI (0-1 scale)); higher = more stable (slower turnover); details: not given
Protocol: (§1)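 MPS profiling in S. cerevisiae of two library types built from selected 12-aa C-degron peptides (IN1, IN2, LN1, LN3, VN2, R1-R5, W1-W3, Atg1 and Rpa12 C-termini): saturation mutagenesis libraries and C-terminal +1 capping libraries (13 aa). Each peptide is fused to the C-terminus of a sfGFP-mCherry timer, after a GGGS linker. Cells are FACS-sorted into 8 mCherry/sfGFP bins and sequenced. PSI runs from 0 (unstable) to 1 (stable), measured once in wild type and in the das1Δ or doa10Δ background.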
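Wherever protein stability index of tFT-peptide fusion in deletion strain of DAS1 is given: PSI is a weighted mean of each variant's read distribution over the sorted stability bins, computed only for variants having over 10 reads in total.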
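Wherever protein stability index of tFT-peptide fusion in wild type is given: PSI derived as read-weighted mean over the 8 sorting bins, only variants exceeding 10 total reads kept, mCherry placed adjacent to the peptide and sfGFP distal.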

Row | Sequence | protein stability index
1 | ADKRNHLIKLLN | 0.587
2 | AKILRQKMNHQN | 0.688
3 | ANWRVGLWRGAS | 0.685
4 | ARDRVGLWRGAS | 0.716
5 | ARKRVGLWRGAS | 0.691
6 | ARMRVGLWRGAS | 0.702
7 | ARSRVGLWRGAS | 0.698
8 | ARVRVGLWRGAS | 0.694
9 | ARWDVGLWRGAS | 0.729
10 | ARWRGGLWRGAS | 0.677
11 | ARWRPGLWRGAS | 0.679
12 | ARWRSGLWRGAS | 0.676
13 | ARWRVGLPRGAS | 0.666
14 | ARWRVGLWRGASK | 0.622
15 | ARWRVGLWRGAV | 0.688
16 | ARWRVGLWRGFS | 0.678
17 | ARWRVGLWRGQS | 0.695
18 | ARWRVGLWRGWS | 0.69
19 | ARWRVGLWRLAS | 0.672
20 | ARWRVGQWRGAS | 0.682
21 | ARWRVNLWRGAS | 0.708
22 | ARWRVRLWRGAS | 0.671
23 | ARWRWGLWRGAS | 0.681
24 | ASMRWTFRYWVN | 0.602

Row | Sequence | protein stability index
25 | ATSCGYKFRTNN | 0.671
26 | CASCGYKFRTNN | 0.714
27 | CLSCGYKFRTNN | 0.701
28 | CTSCAYKFRTNN | 0.665
29 | CTSCDYKFRTNN | 0.689
30 | CTSCGTKFRTNN | 0.693
31 | CTSCGWKFRTNN | 0.673
32 | CTSCGYGFRTNN | 0.693
33 | CTSCGYKFRANN | 0.698
34 | CTSCGYKFRNNN | 0.703
35 | CTSCGYKFRTFN | 0.712
36 | CTSCGYKFRTNH | 0.68
37 | CTSCGYKFRTNNM | 0.69
38 | CTSCGYKFRTSN | 0.704
39 | CTSCGYKFRTVN | 0.705
40 | CTSCGYKGRTNN | 0.674
41 | CTSCGYKKRTNN | 0.692
42 | CTSCGYKNRTNN | 0.696
43 | CTSCGYKPRTNN | 0.683
44 | CTSCGYRFRTNN | 0.679
45 | CTSCKYKFRTNN | 0.69
46 | CTSCQYKFRTNN | 0.689
47 | CTSHGYKFRTNN | 0.689
48 | CTSIGYKFRTNN | 0.695

Row | Sequence | protein stability index
49 | CTSPGYKFRTNN | 0.686
50 | CTSSGYKFRTNN | 0.634
51 | CTYCGYKFRTNN | 0.705
52 | FGMRWTFRYWVN | 0.53
53 | FIMRWTFRYWVN | 0.251
54 | FRWRVGLWRGAS | 0.668
55 | FSFRWTFRYWVN | 0.54
56 | FSLRWTFRYWVN | 0.467
57 | FSMHWTFRYWVN | 0.664
58 | FSMRATFRYWVN | 0.545
59 | FSMRETFRYWVN | 0.596
60 | FSMRTTFRYWVN | 0.623
61 | FSMRWFFRYWVN | 0.602
62 | FSMRWTFKYWVN | 0.485
63 | FSMRWTFLYWVN | 0.383
64 | FSMRWTFNYWVN | 0.719
65 | FSMRWTFRYDVN | 0.572
66 | FSMRWTFRYWAN | 0.537
67 | FSMRWTFRYWKN | 0.524
68 | FSMRWTFRYWPN | 0.528
69 | FSMRWTFRYWVH | 0.439
70 | FSMRWTFRYWVI | 0.461
71 | FSMRWTFRYWVNE | 0.542
72 | FSMRWTFRYWVNL | 0.549

Row | Sequence | protein stability index
73 | FSMRWTFRYWVNW | 0.534
74 | FSMRWTFRYWVV | 0.526
75 | FSMRWTQRYWVN | 0.545
76 | FSMRWWFRYWVN | 0.533
77 | FSMTWTFRYWVN | 0.568
78 | FYMRWTFRYWVN | 0.351
79 | GRWRVGLWRGAS | 0.691
80 | IRGAVGGWRLVG | 0.681
81 | KAHKKGQKQKIN | 0.858
82 | KDKRNHLIKLLN | 0.723
83 | KEHKKGQKQKIN | 0.634
84 | KHHKKGQKQKIN | 0.581
85 | KKHFKGQKQKIN | 0.594
86 | KKHIKGQKQKIN | 0.598
87 | KKHKFGQKQKIN | 0.578
88 | KKHKKGEKQKIN | 0.658
89 | KKHKKGQEQKIN | 0.543
90 | KKHKKGQKQDIN | 0.601
91 | KKHKKGQKQKIE | 0.585
92 | KKHKKGQKQKIF | 0.602
93 | KKHKKGQKQKIG | 0.591
94 | KKHKKGQKQKII | 0.632
95 | KKHKKGQKQKINC | 0.658
96 | KKHKKGQKQKINF | 0.669

Row | Sequence | protein stability index
97 | KKHKKGQKQKINK | 0.659
98 | KKHKKGQKQKINM | 0.662
99 | KKHKKGQKQKINT | 0.662
100 | KKHKKGQKQKIW | 0.558
101 | KKHKKGQKQKYN | 0.586
102 | KKHKKGQTQKIN | 0.591
103 | KKHKKGQVQKIN | 0.649
104 | KKHKKSQKQKIN | 0.584
105 | KKHKLGQKQKIN | 0.58
106 | KKIKKGQKQKIN | 0.58
107 | KKQKKGQKQKIN | 0.566
108 | KKWKKGQKQKIN | 0.561
109 | KRHKKGQKQKIN | 0.634
110 | KVVYLSCVACIN | 0.0792
111 | LKILPQKMNHQN | 0.686
112 | LKILRIKMNHQN | 0.66
113 | LKILRNKMNHQN | 0.703
114 | LKILRQAMNHQN | 0.658
115 | LKILRQDMNHQN | 0.643
116 | LKILRQGMNHQN | 0.667
117 | LKILRQHMNHQN | 0.662

test system: Saccharomyces cerevisiae; assay: protein stability index of tFT-peptide fusion in wild type (PSI (0-1 scale)); higher = more stable (slower turnover); details: genetic background: wild type
Protocol: as §1

Row | Sequence | protein stability index
118 | ADKRNHLIKLLN | 0.129
119 | AKILRQKMNHQN | 0.185
120 | ANWRVGLWRGAS | 0.498
121 | ARDRVGLWRGAS | 0.575
122 | ARKRVGLWRGAS | 0.517
123 | ARMRVGLWRGAS | 0.645
124 | ARSRVGLWRGAS | 0.591
125 | ARVRVGLWRGAS | 0.599
126 | ARWDVGLWRGAS | 0.543
127 | ARWRGGLWRGAS | 0.543
128 | ARWRPGLWRGAS | 0.668
129 | ARWRSGLWRGAS | 0.665
130 | ARWRVGLPRGAS | 0.688
131 | ARWRVGLWRGASK | 0.672
132 | ARWRVGLWRGAV | 0.395
133 | ARWRVGLWRGFS | 0.599
134 | ARWRVGLWRGQS | 0.416
135 | ARWRVGLWRGWS | 0.668
136 | ARWRVGLWRLAS | 0.0888
137 | ARWRVGQWRGAS | 0.614
138 | ARWRVNLWRGAS | 0.34
139 | ARWRVRLWRGAS | 0.333
140 | ARWRWGLWRGAS | 0.55
141 | ASMRWTFRYWVN | 0.0684

Row | Sequence | protein stability index
142 | ATSCGYKFRTNN | 0.235
143 | CASCGYKFRTNN | 0.281
144 | CLSCGYKFRTNN | 0.228
145 | CTSCAYKFRTNN | 0.172
146 | CTSCDYKFRTNN | 0.556
147 | CTSCGTKFRTNN | 0.552
148 | CTSCGWKFRTNN | 0.306
149 | CTSCGYGFRTNN | 0.594
150 | CTSCGYKFRANN | 0.538
151 | CTSCGYKFRNNN | 0.681
152 | CTSCGYKFRTFN | 0.335
153 | CTSCGYKFRTNH | 0.191
154 | CTSCGYKFRTNNM | 0.679
155 | CTSCGYKFRTSN | 0.273
156 | CTSCGYKFRTVN | 0.15
157 | CTSCGYKGRTNN | 0.658
158 | CTSCGYKKRTNN | 0.474
159 | CTSCGYKNRTNN | 0.705
160 | CTSCGYKPRTNN | 0.693
161 | CTSCGYRFRTNN | 0.464
162 | CTSCKYKFRTNN | 0.376
163 | CTSCQYKFRTNN | 0.334
164 | CTSHGYKFRTNN | 0.242
165 | CTSIGYKFRTNN | 0.153

Row | Sequence | protein stability index
166 | CTSPGYKFRTNN | 0.254
167 | CTSSGYKFRTNN | 0.413
168 | CTYCGYKFRTNN | 0.269
169 | FGMRWTFRYWVN | 0.0525
170 | FIMRWTFRYWVN | 0.0251
171 | FRWRVGLWRGAS | 0.0957
172 | FSFRWTFRYWVN | 0.089
173 | FSLRWTFRYWVN | 0.0436
174 | FSMHWTFRYWVN | 0.0392
175 | FSMRATFRYWVN | 0.0843
176 | FSMRETFRYWVN | 0.048
177 | FSMRTTFRYWVN | 0.0969
178 | FSMRWFFRYWVN | 0.0657
179 | FSMRWTFKYWVN | 0.0423
180 | FSMRWTFLYWVN | 0.0672
181 | FSMRWTFNYWVN | 0.0909
182 | FSMRWTFRYDVN | 0.524
183 | FSMRWTFRYWAN | 0.101
184 | FSMRWTFRYWKN | 0.634
185 | FSMRWTFRYWPN | 0.525
186 | FSMRWTFRYWVH | 0.094
187 | FSMRWTFRYWVI | 0.147
188 | FSMRWTFRYWVNE | 0.532
189 | FSMRWTFRYWVNL | 0.139

Row | Sequence | protein stability index
190 | FSMRWTFRYWVNW | 0.436
191 | FSMRWTFRYWVV | 0.0991
192 | FSMRWTQRYWVN | 0.117
193 | FSMRWWFRYWVN | 0.0988
194 | FSMTWTFRYWVN | 0.0417
195 | FYMRWTFRYWVN | 0.044
196 | GRWRVGLWRGAS | 0.447
197 | IRGAVGGWRLVG | 0.154
198 | KAHKKGQKQKIN | 0.111
199 | KDKRNHLIKLLN | 0.0684
200 | KEHKKGQKQKIN | 0.127
201 | KHHKKGQKQKIN | 0.101
202 | KKHFKGQKQKIN | 0.0456
203 | KKHIKGQKQKIN | 0.0778
204 | KKHKFGQKQKIN | 0.0916
205 | KKHKKGEKQKIN | 0.082
206 | KKHKKGQEQKIN | 0.109
207 | KKHKKGQKQDIN | 0.795
208 | KKHKKGQKQKIE | 0.567
209 | KKHKKGQKQKIF | 0.218
210 | KKHKKGQKQKIG | 0.226
211 | KKHKKGQKQKII | 0.12
212 | KKHKKGQKQKINC | 0.333
213 | KKHKKGQKQKINF | 0.652

Row | Sequence | protein stability index
214 | KKHKKGQKQKINK | 0.647
215 | KKHKKGQKQKINM | 0.638
216 | KKHKKGQKQKINT | 0.62
217 | KKHKKGQKQKIW | 0.637
218 | KKHKKGQKQKYN | 0.309
219 | KKHKKGQTQKIN | 0.0981
220 | KKHKKGQVQKIN | 0.152
221 | KKHKKSQKQKIN | 0.0607
222 | KKHKLGQKQKIN | 0.0725
223 | KKIKKGQKQKIN | 0.06
224 | KKQKKGQKQKIN | 0.177
225 | KKWKKGQKQKIN | 0.0754
226 | KRHKKGQKQKIN | 0.0723
227 | KVVYLSCVACIN | 0.0215
228 | LKILPQKMNHQN | 0.417
229 | LKILRIKMNHQN | 0.19
230 | LKILRNKMNHQN | 0.269
231 | LKILRQAMNHQN | 0.23
232 | LKILRQDMNHQN | 0.647
233 | LKILRQGMNHQN | 0.49
234 | LKILRQHMNHQN | 0.201
